{"source": "paper PMC11882435", "target": "RsmA (Pseudomonas aeruginosa) (UniProt O69078)", "sequence (O69078 whole entry)": "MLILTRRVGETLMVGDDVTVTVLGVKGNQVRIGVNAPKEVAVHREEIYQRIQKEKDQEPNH", "assay": "EMSA", "conditions": "Filter binding: 10 mM Tris-HCl pH 7.5, 100 mM KCl, 10 mM MgCl2, 10 mM DTT, 10 ug/mL heparin, RNase inhibitor, 0.5 nM RNA, 37 C 30 min; Hill coefficient 2"}
{"substance": "rhlI leader", "values": [{"measurement": "Kd", "result": 20.9, "unit": "nM"}]}
